Targets include GST-N-γtubulin1-333 (human, UniProt P23258 1-333); GST-γ-tubulin (human, UniProt P23258 1-451); GST-γ-tubulin;His-E2F1 (human;human, UniProt P23258;Q01094 1-451;1-437, |).
Holding throughout (assay): EMSA

The values below come from PMC3205837.

Chain of GST-N-γtubulin1-333 (P23258 1-333): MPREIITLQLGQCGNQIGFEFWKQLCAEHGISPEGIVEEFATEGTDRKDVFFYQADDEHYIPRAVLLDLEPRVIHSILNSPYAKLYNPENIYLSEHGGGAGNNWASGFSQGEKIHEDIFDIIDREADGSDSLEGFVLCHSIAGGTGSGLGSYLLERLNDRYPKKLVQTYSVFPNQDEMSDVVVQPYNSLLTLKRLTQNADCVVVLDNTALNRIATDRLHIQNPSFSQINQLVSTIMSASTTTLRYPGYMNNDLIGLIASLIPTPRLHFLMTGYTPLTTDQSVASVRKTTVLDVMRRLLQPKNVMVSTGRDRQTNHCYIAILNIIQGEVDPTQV
Chain of GST-γ-tubulin (P23258 whole entry): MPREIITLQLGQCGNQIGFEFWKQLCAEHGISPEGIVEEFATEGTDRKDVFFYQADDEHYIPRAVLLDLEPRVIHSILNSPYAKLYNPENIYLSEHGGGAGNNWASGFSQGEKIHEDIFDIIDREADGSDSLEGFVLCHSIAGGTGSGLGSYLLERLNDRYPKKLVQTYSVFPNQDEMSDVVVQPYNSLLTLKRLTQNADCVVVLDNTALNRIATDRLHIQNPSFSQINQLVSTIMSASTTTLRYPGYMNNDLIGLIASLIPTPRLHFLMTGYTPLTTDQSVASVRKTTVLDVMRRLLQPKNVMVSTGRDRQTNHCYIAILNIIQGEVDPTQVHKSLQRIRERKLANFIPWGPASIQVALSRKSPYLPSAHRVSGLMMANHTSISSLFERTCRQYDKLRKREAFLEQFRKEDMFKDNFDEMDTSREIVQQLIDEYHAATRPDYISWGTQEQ
Chain of GST-γ-tubulin;His-E2F1 (P23258 whole entry, chain 1 of 2): as the sequence (P23258 whole entry) above
Chain of GST-γ-tubulin;His-E2F1 (Q01094 whole entry, chain 2 of 2): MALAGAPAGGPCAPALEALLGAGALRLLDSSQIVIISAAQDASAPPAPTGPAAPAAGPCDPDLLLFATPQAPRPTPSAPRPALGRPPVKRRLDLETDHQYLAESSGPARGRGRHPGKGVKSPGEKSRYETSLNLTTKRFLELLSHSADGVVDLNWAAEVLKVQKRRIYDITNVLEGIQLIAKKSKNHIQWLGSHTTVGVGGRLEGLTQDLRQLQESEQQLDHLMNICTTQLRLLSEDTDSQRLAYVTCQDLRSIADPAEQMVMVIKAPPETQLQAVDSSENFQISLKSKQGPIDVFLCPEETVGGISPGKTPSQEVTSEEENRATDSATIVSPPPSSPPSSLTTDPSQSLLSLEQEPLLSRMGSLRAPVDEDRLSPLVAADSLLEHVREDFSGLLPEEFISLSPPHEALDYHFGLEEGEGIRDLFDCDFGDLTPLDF

B1: DHFR promoter E2F site, wild type (dsDNA)
DNA 1: AGCTTCTAGTGCAATTTCGCGCCAAACTTGG
DNA 2: AATTCCAAGTTTGGCGCGAAATTGCACTAGA
Consider B1, for which the values for the binding result with GST-N-γtubulin1-333, in the data set with GST-γ-tubulin and with GST-γ-tubulin;His-E2F1 were “no binding”, “binds” and “binds”, respectively.
